The results in this text go back to patent publication US20240360201A1 (BIOCYTOGEN PHARMACEUTICALS BEIJING, published 2024).

The target of assay [1] is T1, FcRn (human, UniProt P55899 24-297; P61769 21-119).
T1 construct: bought; also called FcγRn; FcRn-Acro
The experiment in a line: SPR (Biacore T200), antibody captured on protein A sensor chip, FcRn-Acro as analyte; analyte range 1000nm-15.625nm. The text has this: (§1) The Fc receptors included FcγRIIB (FcγRIIB-Acro), FcγRIIA (FcγRIIA-H167-Acro), FcγRIIIA (FcγRIIIA-V176-Acro), FcγRIIIB (FcγRIIIB-NA1-Acro), FcγRI (FcγRI-Sino), and FcRn (FcRn-Acro).
On the technique in general: In SPR one partner is held on a chip, and binding of the other changes the refractive index at the surface.

The target in assay [2] is T2, FcγRI-Sino (human, UniProt P12314 16-288, limits assumed).
T2 construct: bought; also called CD64 Protein, Human, Recombinant (His Tag)
T2 sequence (P12314 16-288 limits assumed): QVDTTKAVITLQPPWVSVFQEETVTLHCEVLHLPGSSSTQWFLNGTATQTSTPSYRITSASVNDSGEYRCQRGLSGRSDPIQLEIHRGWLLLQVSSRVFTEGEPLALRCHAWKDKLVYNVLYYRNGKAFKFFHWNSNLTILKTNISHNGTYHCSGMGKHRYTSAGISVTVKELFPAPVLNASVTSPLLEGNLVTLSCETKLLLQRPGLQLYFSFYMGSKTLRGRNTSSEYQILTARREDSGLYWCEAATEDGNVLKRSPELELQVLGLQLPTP
Briefly: SPR (Biacore T200), antibody captured on protein A sensor chip, Fc receptor as analyte; analyte range 400nm-6.25nm.
Excerpt: as §1

Assay [3] deals with T2, FcγRI-Sino. The experiment in a line: SPR Biacore T200; binder captured on protein A chip, Fc receptor as analyte. On the procedure: (§2) Binding affinities of the fusion proteins PDL1-TGFbR2-3A (IgG1) (or PDL1-TGFbR2-3A-IgG1) and PDL1-TGFbR2-3A-IgG4 to human Fc receptors were measured by surface plasmon resonance (SPR) using Biacore™ T200 biosensor equipped with pre-immobilized protein A sensor chips. The Fc receptors included FcγRI-Sino, FcγRIIA-R167-Sino, FcγRIIIA-F176-Sino, FcγRIIIB-Sino, and FcγRn. A humanized CTLA4 antibody CT4-4G12-IgG1 (CT4-4G12, or 4G12; VH SEQ ID NO: 44, VL SEQ ID NO: 45) was used as a control to test binding affinity to FcγRn.

The next assay addresses T3, FcγRIIA-R167-Sino (human, UniProt P12318 34-218, limits assumed).
T3 construct: bought; Arg at 167; also called FCRIIA-R167-Sino; CD32A Protein, Human, Recombinant (167 Arg, His Tag)
T3 sequence (looked up): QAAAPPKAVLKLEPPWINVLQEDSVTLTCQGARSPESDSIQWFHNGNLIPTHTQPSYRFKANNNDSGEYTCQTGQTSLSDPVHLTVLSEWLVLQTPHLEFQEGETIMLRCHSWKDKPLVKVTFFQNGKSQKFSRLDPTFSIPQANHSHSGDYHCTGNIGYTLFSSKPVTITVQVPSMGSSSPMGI
The assay is described as above. The procedure:
as §2

The next assay has as its target T4, FcγRIIIB-Sino (human, UniProt O75015 17-200, limits assumed).
T4 construct: bought; also called FCRIIIB-Sino; CD16b Protein, Human, Recombinant (NA1 allotypes, His Tag)
The description is as above. On the procedure:
as §2

For a further assay, the target named is T5, FcγRIIIA-V176-Acro (human, UniProt P08637 17-208).
T5 construct: bought; Val at 176; also called Human Fc gamma RIIIA/CD16a (V176) Protein, His Tag
T5 sequence (P08637 17-208 F176V limits assumed): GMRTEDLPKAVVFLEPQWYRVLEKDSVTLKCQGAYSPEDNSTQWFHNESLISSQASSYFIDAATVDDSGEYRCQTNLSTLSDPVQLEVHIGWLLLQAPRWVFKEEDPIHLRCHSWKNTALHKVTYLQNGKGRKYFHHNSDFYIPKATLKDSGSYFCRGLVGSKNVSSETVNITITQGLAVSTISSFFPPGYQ
The experiment in a line: SPR (Biacore T200), antibody captured on protein A sensor chip, Fc receptor as analyte; analyte range 400nm-3.125nm.
Excerpt: as §1

In the next assay the target is T6, FcγRIIIB-NA1-Acro (human, UniProt O75015 17-200, limits assumed).
T6 construct: bought; also called Human Fc gamma RIIIB/CD16b (NA1) Protein, His Tag
T6 sequence (O75015 other isoform, or with tags, fused parts or gaps limits assumed): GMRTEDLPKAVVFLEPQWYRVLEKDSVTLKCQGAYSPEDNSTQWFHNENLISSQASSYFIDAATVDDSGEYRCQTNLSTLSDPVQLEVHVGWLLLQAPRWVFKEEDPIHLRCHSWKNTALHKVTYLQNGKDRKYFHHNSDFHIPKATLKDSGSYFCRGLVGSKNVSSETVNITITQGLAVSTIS
The experiment in a line: SPR (Biacore T200), antibody captured on protein A sensor chip, Fc receptor as analyte; analyte range 800nm-6.25nm.
Excerpt: as §1

For the next assay, the target named is T7, FcγRIIA-H167-Acro (human, UniProt P12318 36-218, limits assumed).
T7 construct: bought; His at 167; also called Human Fc gamma RIIA/CD32a (H167) Protein, His Tag
T7 sequence (looked up): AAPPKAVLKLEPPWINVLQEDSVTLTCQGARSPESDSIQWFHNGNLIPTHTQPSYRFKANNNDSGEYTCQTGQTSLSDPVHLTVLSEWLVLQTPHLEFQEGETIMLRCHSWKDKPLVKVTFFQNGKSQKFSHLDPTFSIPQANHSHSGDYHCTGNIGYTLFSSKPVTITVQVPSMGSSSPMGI
The assay is described as above.
Excerpt: as §1

For assay [4], the target named is T1, FcRn. Briefly: SPR Biacore T200; binder captured on protein A chip, Fc receptor as analyte. The procedure: as §2
The target of the next assay is T8, TGFb1 (Homo sapiens (Human), UniProt P01137 279-390, Active TGF-beta-1 is a disulfide-linked homodimer of this chain; one copy is given.).
T8 construct: also called TGFb1 protein
T8 sequence (P01137 279-390 limits assumed): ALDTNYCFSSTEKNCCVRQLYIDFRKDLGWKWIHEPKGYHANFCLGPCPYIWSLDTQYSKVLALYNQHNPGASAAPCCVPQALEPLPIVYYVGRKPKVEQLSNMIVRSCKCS
Briefly: SPR; binder as capture solution, TGFb1 as analyte.

For the next assay, the target named is human CTLA4 (hCTLA4-His) (human, UniProt P16410 36-161, limits assumed). The experiment in a line: SPR Biacore T200; binder captured on protein A chip, target as analyte. The procedure: Binding affinities of the fusion proteins against human CTLA4 (hCTLA4-His) or human PD-L1 (hPDL1) were measured by surface plasmon resonance (SPR) using Biacore™ T200 biosensor equipped with pre-immobilized protein A sensor chips. A CTLA4 antibody CT4-4G12-IgG1 (CT4) was used as a control. ATOR1015-CD86 (CD86) and KN035-IgG1 (with D265A mutation in heavy chain constant domain) were also used as controls.
human CTLA4 (hCTLA4-His), sequence (P16410 36-161 limits assumed): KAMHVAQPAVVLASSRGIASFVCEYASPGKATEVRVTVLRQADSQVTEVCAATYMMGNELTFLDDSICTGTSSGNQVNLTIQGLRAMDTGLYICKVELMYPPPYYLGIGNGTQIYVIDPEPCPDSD

T4 sequence (O75015 other isoform, or with tags, fused parts or gaps limits assumed): as the sequence (O75015 other isoform, or with tags, fused parts or gaps limits assumed) above
T1 sequence (P55899 24-297 limits assumed, chain 1 of 2): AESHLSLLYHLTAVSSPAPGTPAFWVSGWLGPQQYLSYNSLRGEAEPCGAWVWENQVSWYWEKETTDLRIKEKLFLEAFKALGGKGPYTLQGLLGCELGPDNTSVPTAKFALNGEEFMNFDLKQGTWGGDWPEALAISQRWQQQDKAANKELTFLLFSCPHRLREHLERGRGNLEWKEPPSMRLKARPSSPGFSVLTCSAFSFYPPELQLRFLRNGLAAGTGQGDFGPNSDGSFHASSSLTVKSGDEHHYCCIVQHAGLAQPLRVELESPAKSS
T1 sequence (P61769 21-119 limits assumed, chain 2 of 2): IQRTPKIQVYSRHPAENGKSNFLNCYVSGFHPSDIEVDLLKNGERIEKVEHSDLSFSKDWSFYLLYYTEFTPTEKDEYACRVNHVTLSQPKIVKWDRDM

B1: PDL1-avelumab (antibody, human IgG1, lambda)
heavy: not shown
light: QSALTQPASVSGSPGQSITISCTGTSSDVGGYNYVSWYQQHPGKAPKLMIYDVSNRPSGVSNRFSGSKSGNTASLTISGLQAEDEADYYCSSYTSSSTRVFGTGTKVTVLGQPKANPTVTLFPPSSEELQANKATLVCLISDFYPGAVTVAWKADGSPVKAGVETTKPSKQSNNKYAASSYLSLTPEQWKSHRSYSCQVTHEGSTVEKTVAPTECS
notes: IgG1; also called anti-PD-L1 IgG1 antibody; PD-L1 antibody
B1: the Kd (in general, a measure of binding affinity in units of concentration) in the assay with FcRn [1] came out at 1250 nM; in the assay with FcγRI-Sino [2], 101 nM; in the assay with FcγRI-Sino [3], 6.52 nM; with FcγRIIA-R167-Sino it was 692 nM; with FcγRIIIB-Sino, 1210 nM; in the assay with FcγRIIIA-V176-Acro it was 263 nM. Further, the Kd with FcγRIIIB-NA1-Acro came out at 33.1 µM; with FcγRIIA-H167-Acro, 1050 nM.

B2: PDL1-mIL7-3A-mIFNa4 (antibody, human IgG1, lambda)
heavy: EVQLLESGGGLVQPGGSLRLSCAASGFTFSSYIMMWVRQAPGKGLEWVSSIYPSGGITFYADTVKGRFTISRDNSKNTLYLQMNSLRAEDTAVYYCARIKLGTVTTVDYWGQGTLVTVSSASTKGPSVFPLAPSSKSTSGGTAALGCLVKDYFPEPVTVSWNSGALTSGVHTFPAVLQSSGLYSLSSVVTVPSSSLGTQTYICNVNHKPSNTKVDKKVEPKSCDKTHTCPPCPAPELLGGPSVFLFPPKPKDTLMISRTPEVTCVVVDVSHEDPEVKFNWYVDGVEVHNAKTKPREEQYNSTYRVVSVLTVLHQDWLNGKEYKCKVSNKALPAPIEKTISKAKGQPREPQVYTLPPSRDEGGGGSGGGGSECHIKDKEGKAYESVLMISIDELDKMTGTDSNCPNNEPNFFRKHVCDDTKEAAFLNRAARKLKQFLKMNISEEFNVHLLTVSQGTQTLVNCTSKEEKNVKEQKKNDACFLKRLLREIKTCWNKILKGSIGGGGSGGGGSVSLTCLVKGFYPSDIAVEWESNGQPENNYKTTPPVLDSDGSFFLYSKLTVDKSRWQQGNVFSCSVMHEALHNHYTQKSLSLSPGAGGGGSGGGGSGGGGSGGGGSCDLPHTYNLGNKRALTVLEEMRRLPPLSCLKDRKDFGFPLEKVDNQQIQKAQAILVLRDLTQQILNLFTSKDLSATWNATLLDSFCNDLHQQLNDLKACVMQEPPLTQEDSLLAVRTYFHRITVYLRKKKHSLCAWEVIRAEVWRALSSSTNLLARLSEEKE
light: QSALTQPASVSGSPGQSITISCTGTSSDVGGYNYVSWYQQHPGKAPKLMIYDVSNRPSGVSNRFSGSKSGNTASLTISGLQAEDEADYYCSSYTSSSTRVFGTGTKVTVLGQPKANPTVTLFPPSSEELQANKATLVCLISDFYPGAVTVAWKADGSPVKAGVETTKPSKQSNNKYAASSYLSLTPEQWKSHRSYSCQVTHEGSTVEKTVAPTECS
notes: 3A-HC format: mIL7 at the 3A site, mIFNa4 at the heavy chain C-terminus through a linker
In the case of B2, the Kd was determined as 160 nM in the assay with FcRn [1]; 27.1 nM with FcγRI-Sino [2]; 17.3 nM with FcγRIIIA-V176-Acro; 0.501 µM in the assay with FcγRIIIB-NA1-Acro; 115 nM with FcγRIIA-H167-Acro.

B3: PDL1-TGFbR2-3A-IgG4 (antibody)
heavy: EVQLLESGGGLVQPGGSLRLSCAASGFTFSSYIMMWVRQAPGKGLEWVSSIYPSGGITFYADTVKGRFTISRDNSKNTLYLQMNSLRAEDTAVYYCARIKLGTVTTVDYWGQGTLVTVSSASTKGPSVFPLAPCSRSTSESTAALGCLVKDYFPEPVTVSWNSGALTSGVHTFPAVLQSSGLYSLSSVVTVPSSSLGTKTYTCNVDHKPSNTKVDKRVESKYGPPCPPCPAPEFLGGPSVFLFPPKPKDTLMISRTPEVTCVVVDVSQEDPEVQFNWYVDGVEVHNAKTKPREEQFNSTYRVVSVLTVLHQDWLNGKEYKCKVSNKGLPSSIEKTISKAKGQPREPQVYTLPPSQEEGGGGSGGGGSIPPHVQKSVNNDMIVTDNNGAVKFPQLCKFCDVRFSTCDNQKSCMSNCSITSICEKPQEVCVAVWRKNDENITLETVCHDPKLPYHDFILEDAASPKCIMKEKKKPGETFFMCSCSSDECNDNIIFSEEYNTSNPDGGGGSGGGGSVSLTCLVKGFYPSDIAVEWESNGQPENNYKTTPPVLDSDGSFFLYSRLTVDKSRWQEGNVFSCSVMHEALHNHYTQKSLSLSLGK
light: QSALTQPASVSGSPGQSITISCTGTSSDVGGYNYVSWYQQHPGKAPKLMIYDVSNRPSGVSNRFSGSKSGNTASLTISGLQAEDEADYYCSSYTSSSTRVFGTGTKVTVLGQPKANPTVTLFPPSSEELQANKATLVCLISDFYPGAVTVAWKADGSPVKAGVETTKPSKQSNNKYAASSYLSLTPEQWKSHRSYSCQVTHEGSTVEKTVAPTECS
notes: IgG4 subtype of PDL1-TGFbR2-3A
On to B3, for which the Kd in the assay with FcγRI-Sino [3] is 273 nM; in the assay with FcRn [4], 214 nM; with FcγRIIA-R167-Sino, 1780 nM; with FcγRIIIB-Sino it was 576 nM.

B4: PDL1-TGFbR2-3A (antibody)
heavy: EVQLLESGGGLVQPGGSLRLSCAASGFTFSSYIMMWVRQAPGKGLEWVSSIYPSGGITFYADTVKGRFTISRDNSKNTLYLQMNSLRAEDTAVYYCARIKLGTVTTVDYWGQGTLVTVSSASTKGPSVFPLAPSSKSTSGGTAALGCLVKDYFPEPVTVSWNSGALTSGVHTFPAVLQSSGLYSLSSVVTVPSSSLGTQTYICNVNHKPSNTKVDKKVEPKSCDKTHTCPPCPAPELLGGPSVFLFPPKPKDTLMISRTPEVTCVVVDVSHEDPEVKFNWYVDGVEVHNAKTKPREEQYNSTYRVVSVLTVLHQDWLNGKEYKCKVSNKALPAPIEKTISKAKGQPREPQVYTLPPSRDEGGGGSGGGGSIPPHVQKSVNNDMIVTDNNGAVKFPQLCKFCDVRFSTCDNQKSCMSNCSITSICEKPQEVCVAVWRKNDENITLETVCHDPKLPYHDFILEDAASPKCIMKEKKKPGETFFMCSCSSDECNDNIIFSEEYNTSNPDGGGGSGGGGSVSLTCLVKGFYPSDIAVEWESNGQPENNYKTTPPVLDSDGSFFLYSKLTVDKSRWQQGNVFSCSVMHEALHNHYTQKSLSLSPGK
light: QSALTQPASVSGSPGQSITISCTGTSSDVGGYNYVSWYQQHPGKAPKLMIYDVSNRPSGVSNRFSGSKSGNTASLTISGLQAEDEADYYCSSYTSSSTRVFGTGTKVTVLGQPKANPTVTLFPPSSEELQANKATLVCLISDFYPGAVTVAWKADGSPVKAGVETTKPSKQSNNKYAASSYLSLTPEQWKSHRSYSCQVTHEGSTVEKTVAPTECS
notes: IgG1; also called PDL1-TGFbR2-3A (IgG1); PDL1-TGFbR2-3A-IgG1
Regarding B4, the Kd came to 37.3 nM with TGFb1; 14.5 nM with FcγRI-Sino [3]; 19.4 nM with FcRn [4]; 844 nM with FcγRIIA-R167-Sino; 1330 nM in the assay with FcγRIIIB-Sino. Further, the koff (usually a measure of how fast the partners let go of each other) with TGFb1 was 0.00573 s⁻¹. Moreover, in the assay with TGFb1, the kon – broadly, a measure of how fast the partners come together – was 154000 M⁻¹ s⁻¹.

B5: CT4-4G12-IgG1 (antibody)
heavy: not shown
light: DIQMTQSPSFLSASVGDRVTITCRAGENIYSYLAWYQQKPGKAPKLLIYNARTLAEGVPSRFSGSGSGTEFTLTISSLQPEDFATYYCQHHYGSPRTFGGGTKLEIKRTVAAPSVFIFPPSDEQLKSGTASVVCLLNNFYPREAKVQWKVDNALQSGNSQESVTEQDSKDSTYSLSSTLTLSKADYEKHKVYACEVTHQGLSSPVTKSFNRGEC
notes: IgG1; also called humanized CTLA4 antibody
In the assay with human CTLA4 (hCTLA4-His), B5 gave a Kd of 5.91 nM, a koff of 0.00151 s⁻¹ and a kon of 256000 M⁻¹ s⁻¹. Moreover, binding with FcRn [4] was put at a Kd of 126 nM.
